Results as given in patent US10925971B2, “Methods of treating PRLR positive breast cancer” (Regeneron Pharmaceuticals, Inc., priority 2016, dated 2021).

B1: H1H6782P: fully human anti-PRLR antibody, non-blocking; HCVR/LCVR SEQ ID NOs 66/74 (antibody, V domains shown)
VH: EVQLVESGGGLVQPGRSLRLSCAASGFTFDDYAMHWVRQAPGKGLEWVSGIIWNSGHIGYGDSVKGRFTISRDNAKKSLYLQMNSLRAEDTALYYCARDSGRYQSYFDYWGQGTLVTVSS
VL: DIQMTQSPSTLSASVGDRVTITCRASHIISSWLAWYQQKPGKAPKVLIFKASSLESGVPSRFSGSGSGTEFTLTISSLQPDDFATYYCQQYNTYSRTFGQGTKVEIK
B2: H1H6953N: anti-PRLR antibody, human IgG1 Fc form of H1M6953N of Table 1; HCVR/LCVR SEQ ID NOs 274/282 (antibody, V domains shown)
VH: EVQLLESGGGLVQPGGTLRLSCAASGFTFSAYAMSWVRQAPGKGLEWVSSINVRAGDTYYADSVKGRFTISRDNSKNTLFLLMNSLRAEDTAAYYCAKARYSSNWGFDFWGQGTLVTVSS
VL: DIVMTQSPDSLTVSLGARTTINCQSSQTILHSSNNHNYLAWYQQKPGLPPKLLIYWSSTRESGVPDRFSGSGSGTDFTLTISSLQAEDVAIYYCQQYSNTPYTFGQGTKLEIN

How the values were obtained:
MCF7/PRLR tumors = test: MCF7/PRLR breast cancer xenograft, tumor size and tumor growth inhibition; format: in vivo, NCr nude mice; conditions: NCr Nude mice, multi-dose 15 mg/kg
Outline: (§1)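 MCF7/PRLR cells in mammary fat pad of female NCr nude mice, PC3/PRLR in flank of male SCID, T47D #11 in flank of female CB17 SCID, all with estrogen pellets.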

[1] = molecular target: T1, native PRLR expressing T47D cells (Homo sapiens, UniProt P16471); test: FACS cell surface binding
T1 construct: a native PRLR expressing cell line (T47D); endogenous in cells; host or cells: T47D
T1 sequence (P16471 25-622): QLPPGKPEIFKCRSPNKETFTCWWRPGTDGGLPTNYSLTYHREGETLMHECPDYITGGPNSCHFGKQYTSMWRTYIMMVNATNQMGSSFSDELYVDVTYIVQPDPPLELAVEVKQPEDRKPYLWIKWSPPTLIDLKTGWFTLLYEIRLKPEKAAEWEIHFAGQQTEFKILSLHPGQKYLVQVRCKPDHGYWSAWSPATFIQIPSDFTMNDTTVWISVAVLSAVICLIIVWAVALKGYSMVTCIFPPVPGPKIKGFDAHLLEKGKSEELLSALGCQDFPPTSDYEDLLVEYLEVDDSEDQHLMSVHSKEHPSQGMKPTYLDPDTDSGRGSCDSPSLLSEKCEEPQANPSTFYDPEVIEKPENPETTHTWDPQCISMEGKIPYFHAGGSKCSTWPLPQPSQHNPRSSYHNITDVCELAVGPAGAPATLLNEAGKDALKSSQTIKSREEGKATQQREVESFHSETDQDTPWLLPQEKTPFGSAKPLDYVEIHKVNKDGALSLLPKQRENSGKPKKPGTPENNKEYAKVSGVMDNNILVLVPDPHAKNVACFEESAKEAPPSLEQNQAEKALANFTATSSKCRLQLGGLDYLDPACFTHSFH
Outline: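 Binding expressed as mean fluorescence fold change above isotype background, measured by FACS after 30 min on ice with 10 μg/ml antibody and PE-conjugated anti-human detection. T47D, which natively expresses PRLR, tested with engineered HEK293/hPRLR and non-expressing HEK293 cells.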

[2] = test system: Macaca fascicularis PRLR (mfPRLR.mmh; SEQ ID NO:403); test: Surface plasmon resonance (Biacore T200), antibody-capture format; format: binding; conditions: analyte mfPRLR.mmh
Chain of Macaca fascicularis PRLR (mfPRLR.mmh; SEQ ID NO:403) (as listed by the source): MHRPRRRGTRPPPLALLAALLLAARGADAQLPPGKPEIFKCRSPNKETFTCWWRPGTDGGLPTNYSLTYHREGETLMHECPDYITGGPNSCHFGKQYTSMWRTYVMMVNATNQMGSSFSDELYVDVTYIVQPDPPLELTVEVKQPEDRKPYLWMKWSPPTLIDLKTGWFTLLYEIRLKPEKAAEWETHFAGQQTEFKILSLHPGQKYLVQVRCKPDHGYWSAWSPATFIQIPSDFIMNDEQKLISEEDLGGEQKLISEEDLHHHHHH
Outline: (§2)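 Antibodies (human IgG1 Fc) captured on an anti-human Fc sensor surface; soluble monomeric (.mmh) or dimeric (.mFc) PRLR injected as analyte. ka and kd obtained by fitting to a 1:1 binding model.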

[3] = molecular target: T2, monomeric human PRLR (hPRLR.mmh; SEQ ID NO:401) (Homo sapiens, UniProt P16471); test: as above; format: binding; conditions: analyte hPRLR.mmh
T2 construct: soluble monomeric (hPRLR.mmh); mmh (myc-myc-hexahistidine) (C)
T2 sequence (P16471 with tags, fused parts or gaps): as the sequence (as listed by the source) above, with V105I, T139A, M154I, T187I, I236T counted along it
Outline: as §2

[4] = molecular target: T3, dimeric human PRLR (hPRLR.mFc; SEQ ID NO:402) (Homo sapiens, UniProt P16471); test: as above; format: binding; conditions: analyte hPRLR.mFc
T3 construct: dimeric (hPRLR.mFc)
T3 sequence (P16471 with tags, fused parts or gaps): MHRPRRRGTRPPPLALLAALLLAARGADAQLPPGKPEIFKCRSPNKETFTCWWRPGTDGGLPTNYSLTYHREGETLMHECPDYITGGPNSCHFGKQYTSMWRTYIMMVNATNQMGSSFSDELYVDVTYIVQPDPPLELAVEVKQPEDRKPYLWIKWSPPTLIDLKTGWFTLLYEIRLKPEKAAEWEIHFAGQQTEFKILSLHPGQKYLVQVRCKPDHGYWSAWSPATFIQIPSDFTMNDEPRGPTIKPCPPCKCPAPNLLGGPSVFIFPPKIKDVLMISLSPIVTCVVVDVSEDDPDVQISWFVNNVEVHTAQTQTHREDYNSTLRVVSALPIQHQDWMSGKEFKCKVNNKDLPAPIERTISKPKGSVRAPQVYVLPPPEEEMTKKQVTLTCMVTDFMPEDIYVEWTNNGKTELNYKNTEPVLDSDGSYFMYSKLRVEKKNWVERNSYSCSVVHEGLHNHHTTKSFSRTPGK
Outline: as §2

PC3/PRLR tumors = test: PC3/PRLR xenograft, tumor size and tumor growth inhibition; format: in vivo, SCID mice; conditions: SCID mice, multi-dose 15 mg/kg
Outline: as §1

[5] = MCF7/PRLR tumors TRIAL #2, Day 63
[6] = PC3/PRLR tumors TRIAL #2, Day 55
[7] = PC3/PRLR tumors TRIAL #1, Day 63

Row | Molecule | Average Tumor Growth Inhibition (%) (MCF7/PRLR tumors; [5]) | Final Tumor size mm^3 (mean ± SEM) (MCF7/PRLR tumors; [5]) [mm^3] | FACS Cell Binding [1] [Fold Above Background] | ka ([2]; 25° C.) [M/s] | kd ([2]; 25° C.) [s⁻¹] | ka ([2]; 37° C.) [M/s] | kd ([2]; 37° C.) [s⁻¹] | ka ([3]; 25° C.) [M/s] | kd ([3]; 25° C.) [s⁻¹] | ka ([3]; 37° C.) [M/s] | kd ([3]; 37° C.) [s⁻¹] | ka ([4]; 25° C.) [M/s] | kd ([4]; 25° C.) [s⁻¹] | ka ([4]; 37° C.) [M/s] | kd ([4]; 37° C.) [s⁻¹] | Average Tumor Growth Inhibition (%) (PC3/PRLR tumors; [6]) | Final Tumor size mm^3 (mean ± SEM) (PC3/PRLR tumors; [6]) [mm^3] | Final Tumor size mm^3 (mean ± SEM) (MCF7/PRLR tumors; MCF7/PRLR tumors TRIAL #1, Day 52) [mm^3] | Average Tumor Growth Inhibition (%) (PC3/PRLR tumors; [7]) | Final Tumor size mm^3 (mean ± SEM) (PC3/PRLR tumors; [7]) [mm^3]
1 | B1 | 88 | 300 ± 83 | 43 | 266000 | 0.000279 | 385000 | 0.000767 | 360000 | 0.000247 | 557000 | 0.000716 | 317000 | 7.13e-05 | 598000 | 0.00013 | 6 | 1154 ± 212 | – | – | –
2 | B2 | – | – | 40 | 727000 | 0.000319 | 947000 | 0.00256 | 792000 | 0.000212 | 1.1e+06 | 0.00122 | 711000 | 4.77e-05 | 1.47e+06 | 0.00017 | – | – | 421 ± 23 | 0 | 1306 ± 127
